# Results taken from PMC7725318, “Structures of three MORN repeat proteins and a re-evaluation of the proposed lipid-binding properties of MORN repeats” (PLoS ONE, 2020).
# Assays:
# [1] = molecular target: TbMORN1(10–15) (Trypanosoma brucei brucei strain Lister 427); assay: SEC-MALS; Superdex 200 Increase 10/300 GL; 20 mM Tris-HCl pH 8.5, 200 mM NaCl, 2% (w/v) glycerol, 0.5 mM DTT; 100 μl of 2–4 mg/ml protein applied
# [2] = molecular target: TbMORN1(2–15) (Trypanosoma brucei brucei strain Lister 427); assay: as above
# [3] = molecular target: TbMORN1(7–15) (Trypanosoma brucei brucei strain Lister 427); assay: as above
# [4] = molecular target: the molecule itself; assay: crystal structure; sitting-drop vapour diffusion at 22°C; TbMORN1(7–15) in forms P21 and C2 and TgMORN1(7–15) in P43212 as extended dimers; PfMORN1(7–15) in C2221 as a V-shaped dimer with Zn2+
molecule,measurement,setting,value
TbMORN1(10–15) (domain or fragment),stoichiometry N,[1],2
TbMORN1(2–15) (domain or fragment),stoichiometry N,[2],2
TbMORN1(7–15) (domain or fragment),stoichiometry N,[3],2
"TgMORN1(7–15) (domain or fragment, Toxoplasma gondii, TgMORN1, Toxoplasma gondii (1092 bp open reading frame), MORN repeats 7–15; also called Toxoplasma gondii MORN1(7–15); source: E. coli Rosetta 2 (DE3)pLysS, purified; not shown: His10, N-terminal, cleaved) EKYEGDWVNGKMHGHGKYIYSDGGVYEGDWIDGKMHGKGTYVFPNGNVYEGEWAHDMKDGYGVLTYQNGEKYEGYWKQDKVHGKGTLTYTRGDKYIGDWMDAKKDGEGELIYANGDRFKGQWADDRANGFGVFTYANGNRYEGEWTDDKRHGRGVFYCAEDGSAYEGEFVGGRKEGNGILRLATGHQLEGTWSGGQLVRVTSFVFAQDSPWLNVDL",binding result,[4],binds
